B1: TOR1AIP2 (parent)
chain: AGQEGEDTLRRRLLAPEAGSHPQQ
B2: VPS39 (parent)
chain: LRLENNHCHIEESEHVLKKAHKYS

Variants of: B1
Test: protein stability index of a GFP-peptide fusion (GPS, HEK-293T) (PSI 1-6); higher = more stable
Conditions: c terminus: a fixed tail appended
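Further: lentivirally expressed fusions sorted by FACS into six bins by GFP to DsRed ratio, PSI derived from sequencing read proportions per bin multiplied by bin number.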

Protein stability index of substitutions, site by site:
G5: H 2.08; A 2.44; C 3.6; I 2.72; D 3.43; E 2.72; F 1.83
G2: N 3.23; P 1.51; Q 1.64; R 2.91; E 2.74; C 1.6; S 2.71; I 2.19; V 1.67; A 4.25; M 1.55; F 2.99; W 2.45; H 3.58; K 3.32; Y 2.12; D 5.64
A1: V 3.31; R 2.29; F 1.83; I 4.08; S 1.4; H 3.53; Y 2.26; T 2.11; W 3.19; E 4.54; Q 2.57; K 2.54; D 4.05; N 2.5; G 3.25; P 4.86; L 2
Q3: P 2.92; R 1.09; S 2.31; A 2.22; D 3.76; K 2.02; M 1.74; C 1.34; I 1.55; N 1.82; Y 1.37; L 2.47; W 2.14; F 2.05; T 2.47; G 2.65; E 3.17; V 2.27
E4: V 2.79; Q 2.17; R 1.29; F 1.79; D 2.02; L 1.81; H 1.79; P 1.61; K 1.85; I 1.74; S 2.31; T 2.15; G 2.21; Y 1.72; M 2.05; W 2.35; C 2.16; N 1.65

Variants of: B2
Test: as above
Conditions: c terminus: a fixed tail appended

Protein stability index, by site and new letter:
K19: D 2.59; M 2.52; F 1.98; T 2.2; Q 2.51; C 2.24; G 2.21; N 2.39; P 2.41; A 2.3; S 2.1; Y 2.67; I 2.01; E 2.45; L 1.52; H 1.91; R 2.37; W 1.34; V 2.4
Y23: M 2.17; Q 2.45; A 2.76; I 3.14; L 2.7; E 3.12; D 2.15; V 2.05; F 2.28; N 3.05; K 2.21; G 2.75; C 2.25; W 1.72; H 3.13; R 2.25; P 2.56; T 2.4; S 2.77
E14: L 2.16; W 2.67; A 2.38; S 2.42; D 2.12; H 2.33; M 1.73; R 2.06; Q 2.1; T 1.78; I 1.88; C 1.37; G 2.56; P 2.4; Y 1.88; N 2.31; K 2.29; F 1.46; V 2.9
S24: P 1.74; Q 1.92; M 2.18; Y 2.28; L 2.08; W 2.24; V 1.83; E 3.82; T 2.07; N 2.3; A 1.29; D 2.25; C 2.17; G 2.84; I 2.04; K 2.09; F 2.37; H 2.65; R 2.38
H15: D 2.56; Y 2.41; F 2.53; P 2.34; E 2.6; A 2.87; K 2.74; R 2.86; W 2.09; T 2.71; Q 1.98; I 2.41; V 1.5; G 1.89; L 2.1; M 3.02; S 2.64; C 2.18; N 3.07
L17: P 2.14; C 2.65; W 1.72; A 1.83; M 1.56; Y 2.55; I 2.35; G 2.84; N 2.48; E 2.88; F 2.79; Q 2.4; T 3.14; D 3.68; S 2.84; H 1.55; K 2.27; R 2.8; V 2.4
K22: V 2.57; H 2.58; M 1.62; I 1.65; F 1.84; N 2.44; D 3.15; R 2.34; Q 2.12; P 2.79; C 2.02; W 1.84; S 2.51; T 3.65; G 2.96; E 2.4; A 2.48; L 1.99; Y 2.55
V16: R 2.48; P 3.07; S 2.65; K 2.49; D 3.13; W 1.49; Q 1.39; M 1.97; C 2.1; A 3.01; H 2.02; N 2.38; T 2.39; F 3.08; E 2.83; L 2.47; I 2.29; G 2.62; Y 1.9
E12: F 1.24; M 2.68; P 1.93; A 2.19; W 1.78; D 3.1; K 2.94; H 2.75; G 2.26; S 2.61; N 2.44; V 1.35; L 3.66; Y 3.21; T 2.01; Q 2.15; R 2.14; C 2.11; I 1.96
H21: Q 2.62; R 2; F 2.52; I 1.38; A 3.18; E 2.78; C 2.63; S 2.29; Y 2.25; N 2.68; T 2.27; G 2.5; M 1.81; P 1.97; V 3.04; L 1.9; K 2.4; W 2.12; D 2.73
A20: L 1.71; Y 1.92; S 2.19; M 1.98; W 2.25; E 3.06; F 2.24; I 1.61; G 2.73; P 2.23; V 2.52; Q 1.45; N 2.38; H 2.3; C 2.04; K 2.13; T 2.43; D 2.73; R 2.11
S13: L 1.95; D 2.49; Q 1.82; C 2.06; M 1.64; K 2.92; R 2.15; A 2.69; T 2.37; G 2.56; H 2.18; V 2.76; E 2.26; I 1.32; F 1.73; Y 2.75; W 1.01; N 2.12; P 2.63
K18: D 2.31; G 2.08; V 2.54; Q 2.42; M 2.12; F 2.09; W 1.27; H 2.17; E 1.94; S 1.91; N 2.6; A 2.42; L 1.88; C 2.02; R 2.21; Y 2.39; T 1.87; P 1.85; I 2.26
E11: V 1.97; R 3.35; P 2.26; M 2.31; S 3.04; W 2.75; N 2.19; T 2.49; Y 3.06; Q 2.06
